Assay results taken from paper PMC2561144 (Journal of Experimental Botany, 2008).

Legend:
[1] = target: T1, MYA2 tail 1, aa1049-aa1505, fused with GST (Arabidopsis thaliana, UniProt Q9LKB9 1049-1505); assay: pull-down
T1 sequence: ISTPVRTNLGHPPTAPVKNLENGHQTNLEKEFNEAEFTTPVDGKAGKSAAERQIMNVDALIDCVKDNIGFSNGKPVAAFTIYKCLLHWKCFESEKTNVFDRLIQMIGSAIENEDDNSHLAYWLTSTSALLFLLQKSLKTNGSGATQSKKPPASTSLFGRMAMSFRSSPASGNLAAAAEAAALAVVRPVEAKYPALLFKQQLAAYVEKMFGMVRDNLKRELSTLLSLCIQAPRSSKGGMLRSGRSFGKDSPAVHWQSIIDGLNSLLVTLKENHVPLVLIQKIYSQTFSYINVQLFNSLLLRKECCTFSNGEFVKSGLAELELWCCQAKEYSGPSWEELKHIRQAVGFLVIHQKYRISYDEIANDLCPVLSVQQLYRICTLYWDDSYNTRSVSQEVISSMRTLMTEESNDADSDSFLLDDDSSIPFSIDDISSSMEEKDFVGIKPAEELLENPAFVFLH

[2] = target: T2, MYA2 tail 2, aa1049-aa1450, fused with GST (Arabidopsis thaliana, UniProt Q9LKB9 1049-1450); assay: pull-down
T2 sequence: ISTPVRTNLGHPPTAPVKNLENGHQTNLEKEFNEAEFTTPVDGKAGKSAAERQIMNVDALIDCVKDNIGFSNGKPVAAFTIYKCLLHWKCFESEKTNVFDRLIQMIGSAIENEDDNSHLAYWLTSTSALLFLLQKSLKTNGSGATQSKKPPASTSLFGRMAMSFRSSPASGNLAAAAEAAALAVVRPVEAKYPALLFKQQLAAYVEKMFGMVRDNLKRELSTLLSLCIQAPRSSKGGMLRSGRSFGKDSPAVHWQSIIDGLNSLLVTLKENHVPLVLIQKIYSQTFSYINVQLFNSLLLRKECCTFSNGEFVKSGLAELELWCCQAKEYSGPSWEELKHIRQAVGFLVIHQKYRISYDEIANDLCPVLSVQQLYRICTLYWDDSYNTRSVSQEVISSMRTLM

B1: His6-AtRabC2a (natural protein)
chain: MGSSSGQSGYDLSFKILLIGDSGVGKSSLLVSFISSSVEDLAPTIGVDFKIKQLTVGGKRLKLTIWDTAGQERFRTLTSSYYRGAQGIILVYDVTRRETFTNLVDVWGKEIELYSTNQECVRMLVGNKVDRESERGVSREEGIALAKELNCMFLECSARTRQNVEQCFEELALKIMEVPSLLEEGSSAVKRNILKQKPEHQTNTQSGCCS
Question: For B1, which “fold amount bound with GTP over that without GTP or on control beads” value [1] is on record?
Answer: Its value is 1.7 fold.

B2: His6-AtRabD1 (natural protein)
chain: not shown
Question: B2 was tested. Which “fold amount bound with GTP over that without GTP or on control beads” value [2] did it give?
Answer: The value was 1.6 fold.

Question: And the “fold amount bound with GTP over that without GTP or on control beads” value [1]?
Answer: Its value is 2.6 fold.
